The text below walks through data of patent US7018627 (ICOS, dated 2006).

B1: MDC (9-69) (ligand)
chain: DSVCCRDYVRYRLPLRVVKHFYWTSDSCPRPGVVLLTFRDKEICADPRVPWVKMILNKLSQ
notes: Chemically synthesized N-terminal deletion analog
B2: TARC (Thymus and Activation-Regulated Chemokine) (ligand)
chain: ARGTNVGRECCLEYFKGAIPLRKLKTWYQTSEDCSRDAIVFVTVQGRAICSDPNNKRVKNAVKYLQSLERS
notes: The whole entry is named here
B3: human C-C chemokine receptor 4 (CCR4) (receptor)
chain: MNPTDIADTTLDESIYSNYYLYESIPKPCTKEGIKAFGELFLPPLYSLVFVFGLLGNSVVVLVLFKYKRLRSMTDVYLLNLAISDLLFVFSLPFWGYYAADQWVFGLGLCKMISWMYLVGFYSGIFFVMLMSIDRYLAIVHAVFSLRARTLTYGVITSLATWSVAVFASLPGFLFSTCYTERNHTYCKTKYSLNSTTWKVLSSLEINILGLVIPLGIMLFCYSMIIRTLQHCKNEKKNKAVKMIFAVVVLFLGFWTPYNIVLFLETLVELEVLQDCTFERYLDYAIQATETLAFVHCCLNPIIYFFLGEKFRKYILQLFKTCRGLFVLCQYCGLLQIYSADTPSSSYTQSTMDHDLHDAL
notes: Expressed on stably transfected murine pre-B L1.2 cells (L1.2/CCR4, L1.2/huCCR4); also called huCCR4; MDC receptor CCR4
B4: murine Leu-MDC (ligand)
chain: LGPYGANVEDSICCQDYIRHPLPSRLVKEFFWTSKSCRKPGVVLITVKNRDICADPRQVWVKKLLHKLS
B5: human mature Macrophage Derived Chemokine, MDC(1-69) (ligand)
chain: GPYGANMEDSVCCRDYVRYRLPLRVVKHFYWTSDSCPRPGVVLLTFRDKEICADPRVPWVKMILNKLSQ
notes: also called mature MDC; human mature MDC
B6: MDC-wvas (ligand)
chain: B5 chain with W59A, V60S
notes: Chemically synthesized analog
B7: MDC-eyfy (ligand)
chain: B5 chain with H28E, F29Y, Y30F, W31Y

Experiment [1] deals with B3. The experiment in a line: competition with 0.1 nM 125I-labeled human MDC on L1.2/huCCR4 cells; LARC at 100 nM.
Experiment [2] deals with B3. The experiment in a line: CCR4 binding assay on L1.2/CCR4 cells, essentially as in Example 25.
Experiment [3] concerns the target B3. Description: displacement of 0.5 nM MDC-SEAP from CCR4-transfected L1.2 cells by unlabeled chemokine. Here is the method: (§1) The MDC-SEAP was used as a probe to examine MDC binding to CCR4-transfected L1.2 cells. For displacement and saturation experiments, transfected L1.2 cells (approx. 3×10^5) were incubated for one hour at 16° C. in the presence of 0.5 nM MDC-SEAP in the presence or absence of various concentrations of unlabeled chemokines in 200 μl binding buffer (RPMI 1640 media containing 25 mM HEPES, pH 7.4, 1% BSA, and 0.02% sodium azide). Following incubation, the cells were washed four times in binding buffer and lysed in 50 μl of 10 mM Tris-HCl, pH 8.0, and 1% Triton X-100. Samples were heated at 65° C. for 15 minutes to inactivate cellular phosphatases, centrifuged, and stored at −20° C. until assayed.
(§2) Alkaline phosphatase activity in 10 μl of sample was determined by a chemiluminescence assay using the Great Escape Detection kit (Clontech, Palo Alto, Calif.) according to the manufacturer's instructions. […] Binding competition curves were fitted (TableCurve™) using a three-parameter logistic model described by the equation y=a/[1+(x/b)^c], where y is the amount of labelled ligand bound, a is the maximum amount of labelled ligand bound, x is the concentration of the competitive chemokine, b is the IC$50$, and c is a parameter that determines the slope of the curve at the IC$50$.

The target in experiment [4] is T1, MDC-SEAP fusion protein (human, UniProt P05187 23-506).
T1 construct: mature; Expressed from pcDNA3 in COS cells and used as filtered culture supernatant; also called synthetic MDC-SEAP
Description: saturation binding of MDC-SEAP to CCR4-transfected L1.2 cells, Scatchard analysis. Here is the method: as §1, §2

The target of experiment [5] is B3. Description: cell-based or functional assay.

Changes are numbered by the printed parent chain.

As to “chemokine LARC (from UniProt P78556 27-96) (ligand)”, in experiment [1], the cpm of labeled MDC bound in the presence of the competitor was 3800 cpm. For the molecule B1, the binding result in experiment [2] is reported as “binds”. On to B2, for which, in experiment [3], the IC50 was found to be 2.1 nM. On to B3, for which binding in experiment [4] was characterised by a dissociation constant (Kd) of 0.18 nM. Regarding B4, the “chemotaxis of L1.2/huCCR4 cells: response relative to full-length murine MDC” value in experiment [5] is approximately 20 % lower. Take B5: in experiment [3], the IC50 was found to be 0.65 nM and the “fold higher affinity than TARC” value was more than 3 fold.

In the case of B6, the “fold less affinity than MDC” value in experiment [2] was approximately 500 fold. As for B7, in experiment [2], the binding result is on record as “binds”.
